Experimental data: patent publication US20230051701A1 (Bristol-Myers Squibb, published 2023)
Values joined by “and” are separate entries in the source; they are usually repeats but may differ in a detail not shown here. Equal entries are not always repeated.

Columns and labels:
[1] = target: T1, N-terminal domain of hCD73 (residues 26-336 of human CD73), His-tagged (human, UniProt P21589 26-336); assay: SPR, mAb captured on protein A
T1 construct: also called N-hCD73; N-hCD73-his
T1 sequence: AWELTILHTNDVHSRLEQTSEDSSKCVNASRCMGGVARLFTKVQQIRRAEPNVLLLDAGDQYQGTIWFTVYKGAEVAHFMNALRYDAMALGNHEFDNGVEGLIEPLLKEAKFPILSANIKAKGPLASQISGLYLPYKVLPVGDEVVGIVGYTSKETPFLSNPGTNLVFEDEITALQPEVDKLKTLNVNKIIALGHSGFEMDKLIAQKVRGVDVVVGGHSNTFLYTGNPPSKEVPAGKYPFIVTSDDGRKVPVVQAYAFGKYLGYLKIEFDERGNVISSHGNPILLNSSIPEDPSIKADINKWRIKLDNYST
Description: For these experiments, protein A (Pierce) was immobilized to a density of 3000 — 4000 RU on flow cells 1-4 of a CM5 sensor chip (GE Healthcare) using standard ethyl(dimethylaminopropyl) carbodiimide (EDC)/N-hydroxysuccinimide (NHS) chemistry, with ethanolamine blocking, in a running buffer of 0.01 M HEPES pH 7.4, 0.15 M NaCl, 3 mM EDTA, 0.005% v/v tween 20. […] The running buffer for the kinetic experiments was 10 mM sodium phosphate, 130 mM sodium chloride, 0.05% tween 20, pH 7.1. The surfaces were regenerated after each cycle using two 30 s pulses of 10 mM glycine pH 1.5 at a flow rate of 30 μl/min. Sensogram data was double-referenced and then fitted to a 1:1 Langmuir model using Biacore T100 evaluation software v2.0.4, to determine the association rate constant (ka), the dissociation rate constant (kd), and the equilibrium dissociation constant (KD).

[2] = target: T2, human CD73 on cells (Calu6, NCI-H292, SK-MEL-24, human tumor cell lines, human B and T cells) (human, UniProt P21589 27-549); assay: cell-based or functional assay
T2 sequence: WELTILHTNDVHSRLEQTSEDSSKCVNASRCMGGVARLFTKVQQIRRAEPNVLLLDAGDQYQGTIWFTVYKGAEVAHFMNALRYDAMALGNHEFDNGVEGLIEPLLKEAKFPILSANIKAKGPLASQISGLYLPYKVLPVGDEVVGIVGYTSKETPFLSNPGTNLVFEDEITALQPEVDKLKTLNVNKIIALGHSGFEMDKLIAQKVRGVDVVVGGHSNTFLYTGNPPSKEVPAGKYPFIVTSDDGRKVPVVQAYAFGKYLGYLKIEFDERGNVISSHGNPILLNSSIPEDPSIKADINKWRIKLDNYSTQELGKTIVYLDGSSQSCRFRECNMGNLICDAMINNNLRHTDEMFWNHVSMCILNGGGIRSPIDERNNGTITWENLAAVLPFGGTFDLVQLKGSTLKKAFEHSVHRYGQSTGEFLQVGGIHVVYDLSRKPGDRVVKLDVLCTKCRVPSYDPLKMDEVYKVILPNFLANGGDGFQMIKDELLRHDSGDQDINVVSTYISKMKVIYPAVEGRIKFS

Row | Binder | Kd [1] | koff [1] | kon [1] | CD73 Inhibition EC50(nM), cAMP assay, Calu6 [2] | CD73 Inhibition S:B, cAMP assay, Calu6 [2]
1 | CD73.6-IgG2-C219S-IgG1.1f (antibody, also called CD73.6-IgG2CS IgG1.1f) heavy: QVQLVESGGGVVQPGRSLRLSCAASGFTFSNYGMHWVRQAPGKGLEWVAVILYDSSNKYYPDSVKGRFTISRDNSKNTLYLQMNSLRAEDTAVYYCARGGSSWYPDSFDIWGQGTMVTVSSASTKGPSVFPLAPCSRSTSESTAALGCLVKDYFPEPVTVSWNSGALTSGVHTFPAVLQSSGLYSLSSVVTVPSSNFGTQTYTCNVDHKPSNTKVDKTVERKSCVECPPCPAPPVAGPSVFLFPPKPKDTLMISRTPEVTCVVVDVSHEDPEVKFNWYVDGVEVHNAKTKPREEQYNSTYRVVSVLTVLHQDWLNGKEYKCKVSNKALPSSIEKTISKAKGQPREPQVYTLPPSREEMTKNQVSLTCLVKGFYPSDIAVEWESNGQPENNYKTTPPVLDSDGSFFLYSKLTVDKSRWQQGNVFSCSVMHEALHNHYTQKSLSLSPGK light: not shown | 0.72 nM | 0.00022 s⁻¹ | 300000 M⁻¹ s⁻¹ | – | –
2 | CD73.4-IgG2.5G1-KH (antibody) heavy: QVQLVESGGGVVQPGRSLRLSCAASGFTFSNYGMHWVRQAPGKGLEWVAVILYDGSNKYYPDSVKGRFTISRDNSKNTLYLQMNSLRAEDTAVYYCARGGSSWYPDSFDIWGQGTMVTVSSASTKGPSVFPLAPSSRSTSESTAALGCLVKDYFPEPVTVSWNSGALTSGVHTFPAVLQSSGLYSLSSVVTVPSSNFGTQTYTCNVDHKPSNTKVDKTVERKCCVECPPCPAPPVAGPSVFLFPPKPKDTLMISRTPEVTCVVVDVSHEDPEVKFNWYVDGVEVHNAKTKPREEQYNSTYRVVSVLTVLHQDWLNGKEYKCKVSNKALPAPIEKTISKAKGQPREPQVYTLPPSREEMTKNQVSLTCLVKGFYPSDIAVEWESNGQPENNYKTTPPVLDSDGSFFLYSKLTVDKSRWQQGNVFSCSVMHEALHNHYTQKSLSLSPGK light: not shown | – | – | – | 0.44 nM | 42
3 | CD73.4-IgG2.3G1-KH (antibody) heavy: QVQLVESGGGVVQPGRSLRLSCAASGFTFSNYGMHWVRQAPGKGLEWVAVILYDGSNKYYPDSVKGRFTISRDNSKNTLYLQMNSLRAEDTAVYYCARGGSSWYPDSFDIWGQGTMVTVSSASTKGPSVFPLAPCSRSTSESTAALGCLVKDYFPEPVTVSWNSGALTSGVHTFPAVLQSSGLYSLSSVVTVPSSNFGTQTYTCNVDHKPSNTKVDKTVERKSCVECPPCPAPPVAGPSVFLFPPKPKDTLMISRTPEVTCVVVDVSHEDPEVKFNWYVDGVEVHNAKTKPREEQYNSTYRVVSVLTVLHQDWLNGKEYKCKVSNKALPAPIEKTISKAKGQPREPQVYTLPPSREEMTKNQVSLTCLVKGFYPSDIAVEWESNGQPENNYKTTPPVLDSDGSFFLYSKLTVDKSRWQQGNVFSCSVMHEALHNHYTQKSLSLSPGK light: not shown | – | – | – | 1.7 nM | 52
4 | CD73.4-IgG2.5 (antibody) heavy: QVQLVESGGGVVQPGRSLRLSCAASGFTFSNYGMHWVRQAPGKGLEWVAVILYDGSNKYYPDSVKGRFTISRDNSKNTLYLQMNSLRAEDTAVYYCARGGSSWYPDSFDIWGQGTMVTVSSASTKGPSVFPLAPSSRSTSESTAALGCLVKDYFPEPVTVSWNSGALTSGVHTFPAVLQSSGLYSLSSVVTVPSSNFGTQTYTCNVDHKPSNTKVDKTVERKCCVECPPCPAPPVAGPSVFLFPPKPKDTLMISRTPEVTCVVVDVSHEDPEVQFNWYVDGVEVHNAKTKPREEQFNSTFRVVSVLTVVHQDWLNGKEYKCKVSNKGLPAPIEKTISKTKGQPREPQVYTLPPSREEMTKNQVSLTCLVKGFYPSDIAVEWESNGQPENNYKTTPPMLDSDGSFFLYSKLTVDKSRWQQGNVFSCSVMHEALHNHYTQKSLSLSPGK light: not shown | – | – | – | 2.17 nM | 51
5 | CD73.4-IgG2.5G1.1f-KH (antibody) heavy: QVQLVESGGGVVQPGRSLRLSCAASGFTFSNYGMHWVRQAPGKGLEWVAVILYDGSNKYYPDSVKGRFTISRDNSKNTLYLQMNSLRAEDTAVYYCARGGSSWYPDSFDIWGQGTMVTVSSASTKGPSVFPLAPSSRSTSESTAALGCLVKDYFPEPVTVSWNSGALTSGVHTFPAVLQSSGLYSLSSVVTVPSSNFGTQTYTCNVDHKPSNTKVDKTVERKCCVECPPCPAPPVAGPSVFLFPPKPKDTLMISRTPEVTCVVVDVSHEDPEVKFNWYVDGVEVHNAKTKPREEQYNSTYRVVSVLTVLHQDWLNGKEYKCKVSNKALPSSIEKTISKAKGQPREPQVYTLPPSREEMTKNQVSLTCLVKGFYPSDIAVEWESNGQPENNYKTTPPVLDSDGSFFLYSKLTVDKSRWQQGNVFSCSVMHEALHNHYTQKSLSLSPGK light: not shown | – | – | – | 0.87 nM | 45
6 | CD73.4-IgG2.3-plusTHT (antibody) heavy: QVQLVESGGGVVQPGRSLRLSCAASGFTFSNYGMHWVRQAPGKGLEWVAVILYDGSNKYYPDSVKGRFTISRDNSKNTLYLQMNSLRAEDTAVYYCARGGSSWYPDSFDIWGQGTMVTVSSASTKGPSVFPLAPCSRSTSESTAALGCLVKDYFPEPVTVSWNSGALTSGVHTFPAVLQSSGLYSLSSVVTVPSSNFGTQTYTCNVDHKPSNTKVDKTVERKSCVETHTCPPCPAPPVAGPSVFLFPPKPKDTLMISRTPEVTCVVVDVSHEDPEVQFNWYVDGVEVHNAKTKPREEQFNSTFRVVSVLTVVHQDWLNGKEYKCKVSNKGLPAPIEKTISKTKGQPREPQVYTLPPSREEMTKNQVSLTCLVKGFYPSDIAVEWESNGQPENNYKTTPPMLDSDGSFFLYSKLTVDKSRWQQGNVFSCSVMHEALHNHYTQKSLSLSPGK light: not shown | – | – | – | – | 33
7 | CD73.4-IgG2.3-plusGGG (antibody) heavy: QVQLVESGGGVVQPGRSLRLSCAASGFTFSNYGMHWVRQAPGKGLEWVAVILYDGSNKYYPDSVKGRFTISRDNSKNTLYLQMNSLRAEDTAVYYCARGGSSWYPDSFDIWGQGTMVTVSSASTKGPSVFPLAPCSRSTSESTAALGCLVKDYFPEPVTVSWNSGALTSGVHTFPAVLQSSGLYSLSSVVTVPSSNFGTQTYTCNVDHKPSNTKVDKTVERKSCVEGGGCPPCPAPPVAGPSVFLFPPKPKDTLMISRTPEVTCVVVDVSHEDPEVQFNWYVDGVEVHNAKTKPREEQFNSTFRVVSVLTVVHQDWLNGKEYKCKVSNKGLPAPIEKTISKTKGQPREPQVYTLPPSREEMTKNQVSLTCLVKGFYPSDIAVEWESNGQPENNYKTTPPMLDSDGSFFLYSKLTVDKSRWQQGNVFSCSVMHEALHNHYTQKSLSLSPGK light: not shown | – | – | – | 1.26 nM | –
8 | CD73.11-IgG2-C219S (antibody, 4D4 variable regions; also called CD73.11-IgG2CS; mAb-CD73.11-Vh-hHC-IgG2-C219S) heavy: QVQLVESGGGVVQPGRSLRLSCAASGFTFSNYGMHWVRQAPGKGLEWVAVIWYDESNKYYADSVKGRFTISRDNSKNTLFLQMNSLRAEDTAVYYCARGYNSRWYPDAFDIWGQGTMVTVSSASTKGPSVFPLAPCSRSTSESTAALGCLVKDYFPEPVTVSWNSGALTSGVHTFPAVLQSSGLYSLSSVVTVPSSNFGTQTYTCNVDHKPSNTKVDKTVERKSCVECPPCPAPPVAGPSVFLFPPKPKDTLMISRTPEVTCVVVDVSHEDPEVQFNWYVDGVEVHNAKTKPREEQFNSTFRVVSVLTVVHQDWLNGKEYKCKVSNKGLPAPIEKTISKTKGQPREPQVYTLPPSREEMTKNQVSLTCLVKGFYPSDIAVEWESNGQPENNYKTTPPMLDSDGSFFLYSKLTVDKSRWQQGNVFSCSVMHEALHNHYTQKSLSLSPG light: not shown | 3.5 nM and 6.5 nM | 0.00028 s⁻¹ and 0.00051 s⁻¹ | 80000 M⁻¹ s⁻¹ and 79000 M⁻¹ s⁻¹ | – | –
